Positions count from the first letter of the chain named.
B1: RA152 (nucleic acid)
DNA: GCGCGTGGAATACCAGCATCGTCTTGATGCCCTTGGAAGTCCCCTGGATTCGCGGAAACGCGTACATCCAGCTGACGAGTCCCAAATAGGACGAAACGCGC
modifications: expressed or natural sequence
B2: RA158 (nucleic acid)
DNA: GCGCGTCCTGGATTCGCGGAAACGCGTACATCCAGCTGACGAGTCCCAAATAGGACGAGTGATACCAGCATCGTCTTGATGCCCTTGGCAGCACTAAACGCGC
modifications: expressed or natural sequence
B3: RA155 (nucleic acid)
DNA: GCGCGTCCTGGATTCGCGGAAACGCGTACATCCAGCTGACGAGTCCCAAATAGGACGAGAATACCAGCATCGTCTTGATGCCCTTGGAAGTCTCGCGAAACGCGC
modifications: expressed or natural sequence
B4: RA014 (nucleic acid)
DNA: GCGCGTCCTGGATTCGCGGAAACGCGTACATCCAGCTGACGAGTCCCAAATAGGACGAAACGGAATACCAGCATCGTCTTGATGCCCTTGGAAGTCCGCGC
modifications: expressed or natural sequence
B5: RA163 (nucleic acid)
DNA: GCGCGTCCTGGATTCGCGGAAACGCGTACATCCAGCCGGAATACCAGCATCGTCTTGATGCCCTTGGAAGTCCGGCTGACGAGTCCCAAATAGGACGAAACGCGC
modifications: expressed or natural sequence
B6: RA154 (nucleic acid)
DNA: GCGCGTCCTGGATTCGCGGAAACGCGAGAATACCAGCATCGTCTTGATGCCCTTGGAAGTCTCGTACATCCAGCTGACGAGTCCCAAATAGGACGAAACGCGC
modifications: expressed or natural sequence
B7: RA153 (nucleic acid)
DNA: CGAGAATACCAGCATCGTCTTGATGCCCTTGGAAGTCTCGGCGCGTCCTGGATTCGCGGAAACGCGTACATCCAGCTGACGAGTCCCAAATAGGACGAAACGCGC
modifications: expressed or natural sequence
B8: RA156 (nucleic acid)
DNA: GCCGGAATACCAGCATCGTCTTGATGCCCTTGGAAGTCCGGCGCGTCCTGGATTCGCGGAAACGCGTACATCCAGCTGACGAGTCCCAAATAGGACGAAACGCGC
modifications: expressed or natural sequence
B9: RA151 (nucleic acid)
DNA: GCGCGTCCTGGATTCGCGGAAACGCGTACCGGAATACCAGCATCGTCTTGATGCCCTTGGAAGTCCGGCATCCAGCTGACGAGTCCCAAATAGGACGAAACGCGC
modifications: expressed or natural sequence
B10: RA159 (nucleic acid)
DNA: GCGCGTCCTGGATTCGCGGAATACCAGCATCGTCTTGATGCCCTTGGAAGTCCGCGGAAACGCGTACATCCAGCTGACGAGTCCCAAATAGGACGAAACGCGC
modifications: expressed or natural sequence
B11: RA148 (nucleic acid)
DNA: GCGCGTCCTGGATTCGCGGAAACGCGTACATCCAGCTGACGAGAGAATACCAGCATCGTCTTGATGCCCTTGGAAGTCTTCCCAAATAGGACGAAACGCGC
modifications: expressed or natural sequence
B12: RA160 (nucleic acid)
DNA: B11 DNA with A44G, T79C
modifications: expressed or natural sequence
B13: RA162 (nucleic acid)
DNA: GCGCGTCCTGGATTCGCGGAAACGCGTACATCCAGCTGACGAGTCCCAAATAGGGGAATACCAGCATCGTCTTGATGCCCTTGGAAGTCCACGAAACGCGC
modifications: expressed or natural sequence
B14: RA142 (nucleic acid)
DNA: GCGCGTCCTGGATTCGCGGAAACGCGTACGGAATACCAGCATCGTCTTGATGCCCTTGGAAGTCCATCCAGCTGACGAGTCCCAAATAGGACGAAACGCGC
modifications: expressed or natural sequence
B15: RA015 (nucleic acid)
DNA: GCGCGTCCTGGATTCGCGGCGGAATACCAGCATCGTCTTGATGCCCTTGGAAGTCCGAAACGCGTACATCCAGCTGACGAGTCCCAAATAGGACGAAACGCGC
modifications: expressed or natural sequence
B16: RA141 (nucleic acid)
DNA: GCGCGTCCTGGATTCGCGGAAACGCGTACATCCGGAATACCAGCATCGTCTTGATGCCCTTGGAAGTCCGGCCAGCTGACGAGTCCCAAATAGGACGAAACGCGC
modifications: expressed or natural sequence
B17: RA138 (nucleic acid)
DNA: GCGCGGAATACCAGCATCGTCTTGATGCCCTTGGAAGTCCGCGTCCTGGATTCGCGGAAACGCGTACATCCAGCTGACGAGTCCCAAATAGGACGAAACGCGC
modifications: expressed or natural sequence
B18: RA139 (nucleic acid)
DNA: GGAGAATACCAGCATCGTCTTGATGCCCTTGGAAGTCTCCGCGTCCTGGATTCGCGGAAACGCGTACATCCAGCTGACGAGTCCCAAATAGGACGAAACGCGC
modifications: expressed or natural sequence
B19: RA140 (nucleic acid)
DNA: GCGCGTCCTGGATTCGCGGAAACGCGTACATCCAGCTGACGAGTCCGGAATACCAGCATCGTCTTGATGCCCTTGGAAGTCCGGCCCAAATAGGACGAAACGCGC
modifications: expressed or natural sequence
B20: RA146 (nucleic acid)
DNA: GCGCGTCCTGGATTCGCGGAAACGCGTACATCCAGCTGACGAGTCCCAAATAGGAATACCAGCATCGTCTTGATGCCCTTGGAAGTCCGGACGAAACGCGC
modifications: expressed or natural sequence
B21: RA161 (nucleic acid)
DNA: GCGCGTCCTGGATTCGCGGAAACGCGTACATCCAGCTGACGAGTCCCAAATAGGACCCGGAATACCAGCATCGTCTTGATGCCCTTGGAAGTCCGGGAAACGCGC
modifications: expressed or natural sequence
B22: RA157 (nucleic acid)
DNA: GCGCGTCCTGGATTCGCGGAAACGCGTAAGAATACCAGCATCGTCTTGATGCCCTTGGAAGTCTCATCCAGCTGACGAGTCCCAAATAGGACGAAACGCGC
modifications: expressed or natural sequence
B23: RA145 (nucleic acid)
DNA: GCGCGGAATACCAGCATCGTCTTGATGCCCTTGGAAGTCCGTCCTGGATTCGCGGAAACGCGTACATCCAGCTGACGAGTCCCAAATAGGACGAAACGCGC
modifications: expressed or natural sequence
B24: RA143 (nucleic acid)
DNA: GCGCGTCCTGGATTCGCGGAAACGCGTACATCCAGCTGACGAGTGATACCAGCATCGTCTTGATGCCCTTGGCAGCACTAGTCCCAAATAGGACGAAACGCGC
modifications: expressed or natural sequence
B25: RA147 (nucleic acid)
DNA: GCGCGTCCTGGATTCGCGGAAACGCGTACATCCAGCTGACGAGTAGAATACCAGCATCGTCTTGATGCCCTTGGAAGTCTCCCAAATAGGACGAAACGCGC
modifications: expressed or natural sequence
B26: RA150 (nucleic acid)
DNA: GCGCGTCCTGGATTCGCGGAAACGCGTACATCCAGCTGACGAGTCCCAAATAGGACGAAAGGAATACCAGCATCGTCTTGATGCCCTTGGAAGTCCCGCGC
modifications: expressed or natural sequence
B27: RA149 (nucleic acid)
DNA: GCGCGGAGAATACCAGCATCGTCTTGATGCCCTTGGAAGTCTCTCCTGGATTCGCGGAAACGCGTACATCCAGCTGACGAGTCCCAAATAGGACGAAACGCGC
modifications: expressed or natural sequence
B28: RA144 (nucleic acid)
DNA: GCGCGCGAGAATACCAGCATCGTCTTGATGCCCTTGGAAGTCTCGTCCTGGATTCGCGGAAACGCGTACATCCAGCTGACGAGTCCCAAATAGGACGAAACGCGC
modifications: expressed or natural sequence

system: Renilla luciferase RNA; test: Barcoded aptazyme variant library screen: un-cleaved Renilla luciferase RNA by barcode read counts, HEK293-T cells; format: cell-based; settings: un-cleaved Renilla luciferase RNA, HEK293-T cells cultured with 1 mM theophylline (ON) over without theophylline (OFF); barcode read counts, triplicate
Method in brief: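 Barcode sequencing of cDNA versus DNA, normalized per aptazyme, gave the un-cleaved Renilla luciferase RNA fraction and fold-change with versus without theophylline (triplicates). Library: T3H48 ribozyme with one of seven theophylline aptamer variants inserted at each position, placed in the Renilla 3′ UTR of a dual-luciferase vector.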

Question: With B1 as the molecule, how does the “Fold change in RNA expression between the ON state and the OFF state” value (from here on “Fold change”) read?
Answer: The value was 1.4 fold.

Question: B2 was tested. Which “Fold change” value did it give?
Answer: Its value is 1.3 fold.

Question: With B3 as the molecule, how does the “Fold change” value read?
Answer: The value was 1.3 fold.

Question: With B4 as the molecule, how does the “Fold change” value read?
Answer: Its value is 3.1 fold.

Question: B5 was tested. Which “Fold change” value did it give?
Answer: Its value is 1.3 fold.

Question: With B6 as the molecule, how does the “Fold change” value read?
Answer: The value was 1.3 fold.

Question: For B7, which “Fold change” value is on record?
Answer: The value was 1.3 fold.

Question: B8 was tested. Which “Fold change” value did it give?
Answer: Its value is 1.3 fold.

Question: Which “Fold change” value does the source give for B9 here?
Answer: The value was 1.4 fold.

Question: With B10 as the molecule, how does the “Fold change” value read?
Answer: Its value is 1.3 fold.

Question: For B11, which “Fold change” value is on record?
Answer: The value was 1.4 fold.

Question: B12 was tested. Which “Fold change” value did it give?
Answer: Its value is 1.3 fold.

Question: Which “Fold change” value does the source give for B13 here?
Answer: The value was 1.3 fold.

Question: Which “Fold change” value does the source give for B14 here?
Answer: The value was 1.4 fold.

Question: B15 was tested. Which “Fold change” value did it give?
Answer: The value was 3.0 fold.

Question: How did the “Fold change” value turn out when B16 was run?
Answer: The value was 1.4 fold.

Question: With B17 as the molecule, how does the “Fold change” value read?
Answer: Its value is 1.4 fold.

Question: Which “Fold change” value does the source give for B18 here?
Answer: The value was 1.4 fold.

Question: B19 was tested. Which “Fold change” value did it give?
Answer: Its value is 1.4 fold.

Question: How did the “Fold change” value turn out when B20 was run?
Answer: The value was 1.4 fold.

Question: For B21, which “Fold change” value is on record?
Answer: Its value is 1.3 fold.

Question: How did the “Fold change” value turn out when B22 was run?
Answer: The value was 1.3 fold.

Question: Which “Fold change” value does the source give for B23 here?
Answer: The value was 1.4 fold.

Question: B24 was tested. Which “Fold change” value did it give?
Answer: The value was 1.4 fold.

Question: B25 was tested. Which “Fold change” value did it give?
Answer: Its value is 1.4 fold.

Question: Which “Fold change” value does the source give for B26 here?
Answer: The value was 1.4 fold.

Question: B27 was tested. Which “Fold change” value did it give?
Answer: Its value is 1.4 fold.

Question: How did the “Fold change” value turn out when B28 was run?
Answer: Its value is 1.4 fold.
